Experimental data published in PMC9719943, “Expression and structural analysis of human neuroligin 2 and neuroligin 3 implicated in autism spectrum disorders” (Frontiers in Endocrinology, 2022).

B1: full-length human NLGN3 (natural protein, UniProt Q9NZ94 38-848, looked up)
chain: QAPAPTVNTHFGKLRGARVPLPSEILGPVDQYLGVPYAAPPIGEKRFLPPEPPPSWSGIRNATHFPPVCPQNIHTAVPEVMLPVWFTANLDIVATYIQEPNEDCLYLNVYVPTEDVKRISKECARKPNKKICRKGGSGAKKQGEDLADNDGDEDEDIRDSGAKPVMVYIHGGSYMEGTGNMIDGSILASYGNVIVITLNYRVGVLGFLSTGDQAAKGNYGLLDQIQALRWVSENIAFFGGDPRRITVFGSGIGASCVSLLTLSHHSEGLFQRAIIQSGSALSSWAVNYQPVKYTSLLADKVGCNVLDTVDMVDCLRQKSAKELVEQDIQPARYHVAFGPVIDGDVIPDDPEILMEQGEFLNYDIMLGVNQGEGLKFVEGVVDPEDGVSGTDFDYSVSNFVDNLYGYPEGKDTLRETIKFMYTDWADRDNPETRRKTLVALFTDHQWVEPSVVTADLHARYGSPTYFYAFYHHCQSLMKPAWSDAAHGDEVPYVFGVPMVGPTDLFPCNFSKNDVMLSAVVMTYWTNFAKTGDPNKPVPQDTKFIHTKANRFEEVAWSKYNPRDQLYLHIGLKPRVRDHYRATKVAFWKHLVPHLYNLHDMFHYTSTTTKVPPPDTTHSSHITRRPNGKTWSTKRPAISPAYSNENAQGSWNGDQDAGPLLVENPRDYSTELSVTIAVGASLLFLNVLAFAALYYRKDKRRQEPLRQPSPQRGAGAPELGAAPEEELAALQLGPTHHECEAGPPHDTLRLTALPDYTLTLRRSPDDIPLMTPNTITMIPNSLVGLQTLHPYNTFAAGFNSTGLPHSHSTTRV
notes: neuroligin 3 (NLGN3), human, full-length gene in pCDNA3.1; UniProt ID Q9NZ94 printed for NLGN3; also called neuroligin 3
B2: extracellular domain of human NLGN2 (domain or fragment, UniProt Q8NFZ4 15-677, looked up)
chain: QRGGGGPGGGAPGGPGLGLGSLGEERFPVVNTAYGRVRGVRRELNNEILGPVVQFLGVPYATPPLGARRFQPPEAPASWPGVRNATTLPPACPQNLHGALPAIMLPVWFTDNLEAAATYVQNQSEDCLYLNLYVPTEDGPLTKKRDEATLNPPDTDIRDPGKKPVMLFLHGGSYMEGTGNMFDGSVLAAYGNVIVATLNYRLGVLGFLSTGDQAAKGNYGLLDQIQALRWLSENIAHFGGDPERITIFGSGAGASCVNLLILSHHSEGLFQKAIAQSGTAISSWSVNYQPLKYTRLLAAKVGCDREDSAEAVECLRRKPSRELVDQDVQPARYHIAFGPVVDGDVVPDDPEILMQQGEFLNYDMLIGVNQGEGLKFVEDSAESEDGVSASAFDFTVSNFVDNLYGYPEGKDVLRETIKFMYTDWADRDNGEMRRKTLLALFTDHQWVAPAVATAKLHADYQSPVYFYTFYHHCQAEGRPEWADAAHGDELPYVFGVPMVGATDLFPCNFSKNDVMLSAVVMTYWTNFAKTGDPNQPVPQDTKFIHTKPNRFEEVVWSKFNSKEKQYLHIGLKPRVRDNYRANKVAFWLELVPHLHNLHTELFTTTTRLPPYATRWPPRPPAGAPGTRRPPPPATLPPEPEPEPGPRAYDRFPGDSRDYSTELS
notes: neuroligin 2 (NLGN2), human, extracellular domain; Subcloned into the secretory vector pSecTAG2B; also called neuroligin 2; NLGN2 ectodomain; source: Expi293F (HEK293F) cells, transiently transfected, purified (nickel resin, Superose 6 SEC)

Molecular target: the molecule itself
Assay: cryo-EM structure; purified NLGNs at 0.25 mg/ml on holey carbon grids; protein in 25 mM HEPES pH 7.5, 150 mM NaCl; homodimer, C2 symmetry

Protein	stoichiometry N
B1	2
B2	2
